The numbers were not newly measured in PMC3721222, which cites them from elsewhere.

Like-named read-outs stand apart in the source and are kept apart here. A value given as a limit tells only on which side of the number the result lay.

Data set [1] concerns the target Chymotrypsin (Bos taurus) (UniProt P00766).
For data set [2], the target named is Cathepsin D (UniProt P07339).
In data set [3] the target is Trypsin (Bos taurus) (UniProt P00760).
For data set [4] the target is unchanged. The source holds these as a separate data set.
Data set [5] has as its target Plasmin (Homo sapiens) (UniProt P00747).
The target in data set [6] is Chymotrypsin (Bos taurus) (UniProt P00766). The source holds these as a separate data set.
Data set [7] addresses Trypsin (Bos taurus) (UniProt P00760). The source holds these as a separate data set.
In data set [8] the target is Plasmin (Homo sapiens) (UniProt P00747). This is another data set of the same source.
For data set [9], the target named is Trypsin (Bos taurus) (UniProt P00760). This is another data set of the same source.
The target is the same in data set [10]. The source holds these as a separate data set.
Data set [11] deals with Plasma kallikrein (Homo sapiens) (UniProt P03952).
For data set [12], the target named is alpha-Factor XIIa (Homo sapiens) (UniProt P00748).
In data set [13] the target is Neutrophil elastase (Homo sapiens) (UniProt P08246).
Data set [14] has as its target Pancreatic elastase (Sus scrofa) (UniProt P00772).
In data set [15] the target is Subtilisin A (Bacillus licheniformis) (UniProt P00780).
The target of data set [16] is Chymotrypsin (Bos taurus) (UniProt P00766). This is another data set of the same source.
Data set [17] addresses Proteinase K (Parengyodontium album) (UniProt P06873).
In data set [18] the target is Chymotrypsin (Bos taurus) (UniProt P00766). This is another data set of the same source.
For data set [19], the target named is Trypsin (Bos taurus) (UniProt P00760). This is another data set of the same source.
Data set [20] deals with Thrombin (Homo sapiens) (UniProt P00734).
For data set [21], the target named is Kv1.6 (UniProt P17658).
In data set [22] the target is Kv1.2 (UniProt P16389).
In data set [23] the target is Kv1.1 (UniProt Q09470).
Data set [24] addresses Trypsin (Bos taurus) (UniProt P00760). This is another data set of the same source.
The target is the same in data set [25]. This is another data set of the same source.
In data set [26] the target is Plasmin (Homo sapiens) (UniProt P00747). The source holds these as a separate data set.
Data set [27] concerns the target Chymotrypsin (Bos taurus) (UniProt P00766). This is another data set of the same source.
Data set [28] has as its target Trypsin (Bos taurus) (UniProt P00760). This is another data set of the same source.

UniProt P00747, sequence (P00747 581-810): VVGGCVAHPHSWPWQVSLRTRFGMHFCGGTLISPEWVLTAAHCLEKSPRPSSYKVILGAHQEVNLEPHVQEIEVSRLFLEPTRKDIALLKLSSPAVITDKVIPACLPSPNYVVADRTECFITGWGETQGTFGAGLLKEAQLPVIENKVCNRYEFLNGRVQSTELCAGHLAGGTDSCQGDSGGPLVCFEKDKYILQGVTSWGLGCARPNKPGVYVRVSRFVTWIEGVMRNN
UniProt P00760, sequence (P00760 149-246): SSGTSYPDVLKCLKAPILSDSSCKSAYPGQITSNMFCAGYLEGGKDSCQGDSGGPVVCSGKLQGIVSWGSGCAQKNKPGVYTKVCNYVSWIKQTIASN
UniProt P06873, sequence (P06873 106-384): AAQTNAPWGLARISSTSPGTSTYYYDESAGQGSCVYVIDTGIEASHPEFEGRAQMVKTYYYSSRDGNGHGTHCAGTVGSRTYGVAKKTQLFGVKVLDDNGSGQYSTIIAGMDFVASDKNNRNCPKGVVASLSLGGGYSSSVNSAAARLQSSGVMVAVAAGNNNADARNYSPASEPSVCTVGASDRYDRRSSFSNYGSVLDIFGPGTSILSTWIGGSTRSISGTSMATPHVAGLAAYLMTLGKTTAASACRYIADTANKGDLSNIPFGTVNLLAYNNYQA
UniProt Q09470, sequence (Q09470 whole entry): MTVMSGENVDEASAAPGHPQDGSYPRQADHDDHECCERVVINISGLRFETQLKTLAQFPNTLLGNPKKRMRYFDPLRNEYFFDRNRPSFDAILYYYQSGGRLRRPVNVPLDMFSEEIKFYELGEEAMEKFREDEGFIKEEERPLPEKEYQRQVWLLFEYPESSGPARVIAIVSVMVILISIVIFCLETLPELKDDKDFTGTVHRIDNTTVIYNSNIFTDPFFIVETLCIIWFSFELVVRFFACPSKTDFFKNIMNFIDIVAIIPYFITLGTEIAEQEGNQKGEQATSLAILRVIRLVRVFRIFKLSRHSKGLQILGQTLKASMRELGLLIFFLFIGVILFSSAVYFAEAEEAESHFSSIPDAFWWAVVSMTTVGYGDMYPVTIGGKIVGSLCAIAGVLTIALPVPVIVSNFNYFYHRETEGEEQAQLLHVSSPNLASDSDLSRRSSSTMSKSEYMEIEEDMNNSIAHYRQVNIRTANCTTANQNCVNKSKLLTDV
UniProt P07339, sequence (P07339 65-412): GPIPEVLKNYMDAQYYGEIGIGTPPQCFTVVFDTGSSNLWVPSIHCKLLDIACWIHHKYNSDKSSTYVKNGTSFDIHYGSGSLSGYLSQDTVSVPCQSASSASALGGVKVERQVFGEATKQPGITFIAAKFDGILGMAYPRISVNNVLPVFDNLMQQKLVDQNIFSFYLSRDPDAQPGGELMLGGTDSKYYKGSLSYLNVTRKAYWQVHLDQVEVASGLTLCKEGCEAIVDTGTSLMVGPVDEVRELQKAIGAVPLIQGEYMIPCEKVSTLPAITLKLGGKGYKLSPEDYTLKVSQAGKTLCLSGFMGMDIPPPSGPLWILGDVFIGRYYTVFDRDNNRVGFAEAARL
UniProt P17658, sequence (P17658 whole entry): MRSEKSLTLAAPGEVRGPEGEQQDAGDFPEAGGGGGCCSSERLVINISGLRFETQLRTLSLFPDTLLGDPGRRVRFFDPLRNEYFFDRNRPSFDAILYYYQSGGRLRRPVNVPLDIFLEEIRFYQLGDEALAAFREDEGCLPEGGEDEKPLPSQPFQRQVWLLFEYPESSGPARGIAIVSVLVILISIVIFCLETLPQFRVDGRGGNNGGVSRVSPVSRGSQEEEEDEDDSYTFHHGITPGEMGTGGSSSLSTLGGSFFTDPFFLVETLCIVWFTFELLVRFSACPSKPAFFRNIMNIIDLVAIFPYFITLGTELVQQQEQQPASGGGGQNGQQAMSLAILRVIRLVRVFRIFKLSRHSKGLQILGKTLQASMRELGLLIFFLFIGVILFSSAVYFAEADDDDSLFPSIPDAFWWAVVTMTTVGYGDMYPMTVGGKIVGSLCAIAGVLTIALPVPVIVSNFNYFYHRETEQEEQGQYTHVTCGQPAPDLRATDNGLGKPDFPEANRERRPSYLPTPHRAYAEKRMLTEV
UniProt P00772, sequence (P00772 27-266): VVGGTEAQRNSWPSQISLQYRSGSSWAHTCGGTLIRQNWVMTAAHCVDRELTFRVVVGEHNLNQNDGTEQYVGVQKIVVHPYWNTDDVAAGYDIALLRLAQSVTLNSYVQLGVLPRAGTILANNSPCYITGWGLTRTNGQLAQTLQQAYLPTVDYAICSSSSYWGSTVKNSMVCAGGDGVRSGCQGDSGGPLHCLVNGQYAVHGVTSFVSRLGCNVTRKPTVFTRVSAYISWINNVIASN
UniProt P08246, sequence (P08246 30-267): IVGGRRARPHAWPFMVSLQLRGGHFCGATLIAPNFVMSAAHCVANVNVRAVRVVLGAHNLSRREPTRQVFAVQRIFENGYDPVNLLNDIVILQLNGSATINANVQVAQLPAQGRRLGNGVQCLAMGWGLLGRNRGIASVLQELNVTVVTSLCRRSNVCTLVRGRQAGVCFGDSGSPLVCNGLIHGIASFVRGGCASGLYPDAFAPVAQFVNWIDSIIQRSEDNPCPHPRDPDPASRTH
UniProt P00780, sequence (P00780 106-379): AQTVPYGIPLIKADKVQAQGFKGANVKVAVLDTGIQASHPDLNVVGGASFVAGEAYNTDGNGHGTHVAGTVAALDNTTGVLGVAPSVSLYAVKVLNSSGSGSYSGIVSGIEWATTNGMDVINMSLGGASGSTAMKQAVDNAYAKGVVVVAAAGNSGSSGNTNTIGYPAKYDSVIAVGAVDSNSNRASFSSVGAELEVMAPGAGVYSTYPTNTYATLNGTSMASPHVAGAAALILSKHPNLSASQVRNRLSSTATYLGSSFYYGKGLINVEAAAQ
UniProt P16389, sequence (P16389 whole entry): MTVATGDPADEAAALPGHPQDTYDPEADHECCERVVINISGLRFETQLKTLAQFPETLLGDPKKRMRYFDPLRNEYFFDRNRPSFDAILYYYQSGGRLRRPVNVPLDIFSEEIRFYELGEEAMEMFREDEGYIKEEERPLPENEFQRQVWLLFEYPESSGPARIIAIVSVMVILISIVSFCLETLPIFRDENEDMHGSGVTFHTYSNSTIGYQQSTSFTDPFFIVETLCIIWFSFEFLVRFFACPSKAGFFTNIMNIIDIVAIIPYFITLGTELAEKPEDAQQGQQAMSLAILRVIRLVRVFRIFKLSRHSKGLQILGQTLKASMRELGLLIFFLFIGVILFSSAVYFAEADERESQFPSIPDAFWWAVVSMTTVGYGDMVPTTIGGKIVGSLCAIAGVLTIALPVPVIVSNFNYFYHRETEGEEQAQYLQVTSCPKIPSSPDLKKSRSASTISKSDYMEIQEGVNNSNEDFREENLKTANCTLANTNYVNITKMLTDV
UniProt P03952, sequence (P03952 391-638): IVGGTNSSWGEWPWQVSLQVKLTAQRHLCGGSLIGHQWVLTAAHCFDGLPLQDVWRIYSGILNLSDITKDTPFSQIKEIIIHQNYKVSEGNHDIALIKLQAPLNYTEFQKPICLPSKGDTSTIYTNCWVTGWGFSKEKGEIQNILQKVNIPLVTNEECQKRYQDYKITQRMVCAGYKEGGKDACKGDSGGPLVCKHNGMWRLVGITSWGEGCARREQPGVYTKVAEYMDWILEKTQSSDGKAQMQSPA
UniProt P00748, sequence (P00748 20-372, chain 1 of 2): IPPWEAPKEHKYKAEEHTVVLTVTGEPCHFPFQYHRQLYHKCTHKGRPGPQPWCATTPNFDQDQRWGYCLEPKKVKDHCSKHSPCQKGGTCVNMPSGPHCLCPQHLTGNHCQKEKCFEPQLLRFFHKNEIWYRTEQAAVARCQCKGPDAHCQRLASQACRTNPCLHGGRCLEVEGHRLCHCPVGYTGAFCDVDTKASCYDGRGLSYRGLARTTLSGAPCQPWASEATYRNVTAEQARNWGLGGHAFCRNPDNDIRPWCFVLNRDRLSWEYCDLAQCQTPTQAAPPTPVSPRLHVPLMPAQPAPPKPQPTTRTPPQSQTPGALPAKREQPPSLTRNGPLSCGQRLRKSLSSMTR
UniProt P00748, sequence (P00748 373-615, chain 2 of 2): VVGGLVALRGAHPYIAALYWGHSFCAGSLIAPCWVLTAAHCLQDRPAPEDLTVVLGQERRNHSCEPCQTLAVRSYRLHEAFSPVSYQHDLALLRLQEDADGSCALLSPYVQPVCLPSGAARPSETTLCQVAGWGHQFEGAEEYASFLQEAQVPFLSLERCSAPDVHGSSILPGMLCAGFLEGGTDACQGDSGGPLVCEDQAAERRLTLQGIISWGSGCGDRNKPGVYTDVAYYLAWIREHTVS

A word on the Ki: it is a measure of affinity in units of concentration, obtained from inhibition or displacement. With BBPTI-1 (from UniProt A8Y7P1), the Ki in [1] is 4.77 nM.

As for “Equistatin second domain (from UniProt P81439)”, the Ki in [2] is 0.3 nM.

What is called Kd is the concentration at which binding is half-saturated. As to HWTX-XI (from UniProt P68425), the Kd in data set [3] was 0.23 nM.

For Textilinin-1 (from UniProt Q90WA1), the Ki in [4] is 0.76 nM; in data set [5] it was 0.49 nM.

In the case of Pr-mulgin 2 (from UniProt E7FL12), the Ki in [6] was 40 nM; in data set [7] it was 5 nM; in [8], 40 nM.

Regarding APEKTx1 (from UniProt P86862), the Kd in data set [9] is 124 nM.

As for rBmKTT-3 (from UniProt P0DJ47), in [10], the Kd was 760 nM.

As for TSPI (from UniProt B7S4N9), the Ki in data set [11] was 0.057 nM; in data set [12], 2380 nM.

Consider AvCI (from UniProt L7X735), for which the Ki in data set [13] is 8.74 nM; in data set [14] it was 11.3 nM; in data set [15], 20.5 nM; in [16], 49.9 nM; in data set [17], 65.4 nM.

For Oh11-1 (from UniProt P82966), the Ki in data set [18] was 3520 nM.

With Bicolin (from UniProt C0LNR2), the Ki in [19] is 550 nM; in [20], 26000 nM.

α-dendrotoxin (from UniProt P00980): the dissociation constant Kd in data set [21], in data set [22] and in data set [23] was under 20 nM throughout.

With PILP-1 (from UniProt B4ESA2), the Ki in data set [24] was 55.6 nM.

On to Pr-mulgin 3 (from UniProt E7FL13), for which the Ki in [25] was 5 nM; in data set [26] it was 100 nM.

Turning to “OH-TCI (recombinant) (from UniProt B6RLX2)”, the Ki in data set [27] was 84.6 nM; in data set [28] it was 391 nM.
